B1: TPR t1 (parent)
chain: GACCAAUCUGCCCUCAGAGCUCGAGAACAUCUUCGGAUGCAGAGGAGGCAGGCUUCGGUGGCGCGAUAGCGCCAACGUCCUCAACCUCCAAUGCAUCCCACCACAUGAUGAUGCCUGAAGAGCCUUGGUUUUUUG

Variants of: B1
Experiment: polymerase ribozyme fitness, log enrichment relative to wild type (log ratio); higher = more active; in vitro selection for triplet polymerase activity
Procedure, shortened: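 Fitness compares each genotype's enrichment to that of the wild type on a logarithmic scale, averaging replicates with inverse-variance weights. The logarithm is base 2. Enrichment came from Illumina sequencing of input and output libraries after one triplicate round of in vitro selection, which included frozen incubation at −7 °C, of PCR-built, transcribed mutant libraries of each subunit of a heterodimeric triplet polymerase ribozyme. Only genotypes with ≥10 input reads and ≥1 read per output were kept.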

Variant	polymerase ribozyme fitness (log ratio)
GACCAAUCUGCCCUAAGAGCUCGAGAACAUCUUCGGAUGCAGAGGAGGCAGGCUUCGGUGGCGCGAUAGCGCCAACGUCCUCAACCUCCAAAGCAUCCCACCACAUGAUGAUGCCUGAAGAGCCUUGGUUUUUUG [C15A U92A]	-4.5
GACCAAUCUGCCCUCAGAGCUCGAGAGCAUCUUCGGAUGCAGAGGAGGCAGGCUUCGGUGGCGCGAUAGCGUCAACGUCCUCAACCUCCAAUGCAUCCCACCACAUGAUGAUGCCUGAAGAGCCUUGGUUUUUUG [A27G C72U]	-1.76
GACCAAUCUGCCCUCAGAACUCGAGAACAUCUUCGGAUGCAGAGGAGGCAGGCUUCGGUGGCGCGAUAACGCCAACGUCCUCAACCUCCAAUGCAUCCCACCACAUGAUGAUGCCUGAAGAGCCUUGGUUUUUUG [G19A G69A]	-4.57
GACCAAUAUGCCCUCAGAGCACGAGAACAUCUUCGGAUGCAGAGGAGGCAGGCUUCGGUGGCGCGAUAGCGCCAACGUCCUCAUCCUCCAAUGCAUCCCACCACAUGAUGAUGCCUGAAGAGCCUUGGUUUUUUG [C8A U21A A84U]	-0.224
GACCAUUCUGCCCUCAUAGCUCGAGAACAUCUUCGGAUGCAGAGGAGGCAGGCUUCGGUGGCGCGAUAGCGCCAACGUCCUCAACCUCCAAUGCAUCCCACCACAUGAUGAAGCCUGAAAAGCCUUGGUUUUUUG [A6U G17U U112A G120A]	-3.9
GACCAAUCUGCCUUCAGAGCUCGAGAACAUCUUCGGAUGCAGAGGAGGCAGGACUCGGUGGCGCGAUAGCGCCAACGUCCUCAACCUCCAAUGCAUCCCACCACAUGAUGAUGCCUGAACAGCCUUGGUUUUUUG [C13U C53A U54C G120C]	1.15
GGCCAAUCUGCCCUCAGAGCUCGAGAACAUCUUCGGAUGCAGAGGAGGCAGGCUUCGGUGGCGCGAUAGCGCCAACGUCCUCAACCUCCAAUGCAUCCCACCACAUUAUGAUGCCUGAAGAGCCUUGGUUUUUUG [A2G G107U]	-5.37
GACCAGUCUGCCCUCAGAGCUCGAGAACAUCUUCGGAUGCAGAGGCGGAAGGAUCCGGUGGCGCGAUAGCGCCAACGUCCUCAACCUCCAAUGCAUCCCACCACAUGAUGAUGCCUGAAGAGCCUUUGUUUUUUG [A6G A46C C49A C53A U55C G127U]	-3.07
GACCAAUCUGCCCUCAGAGCUCGAGAACCUCUUCGGAUGCAGAGGAGGCAGGGUUCGGUGGCGCGAUAGCGCCAACGUCCUCAACCUCCAAUGCAUCCCACCACAUGAUGUUGCCUGAAGAGCCUUGGUUUUUUG [A29C C53G A111U]	-1.63
GACCAAUCUGCCCUCAGAGCUCGAGAACAUCUUCGGAUGCAGAGGAGGCAGGCUUCGGUGGCGCGAUAGCGCCAACGUCCUAAACCUCCAAUGCAUCCCACUACAUGAUGAUGCCUGAAGAGCCUUGGUUUUUUG [C82A C102U]	-1.82
GACCAAUCUGCCCUCAGAGCUCGAGAACAUCUUCGGAUGCAGAGGAGUCAGGCUGCGGUGGCGCGAUAACGCCAACGUCCUCAACCUCCAAUGCAUCCCACCACAUGAUGAUGCCUGAAGAGCCUUGGUUUUUUG [G48U U55G G69A]	-2.77
GACCAAUCUGCCCUCAGAGCACGAGAACAUCUUCGGAUGCCGAGGAGGCAGGCUUCGGUGGCGCGAUAGCGCCAACGUCCUCAACCUCCCAUACAUCCCACCACAUGAUGAUGCCUGAAGAGCCUUGGUUUUUUG [U21A A41C A90C G93A]	-4.16
GACCAAUCUGCCCUCAGAGCUCGAGAACAUCUUCGGAUGCAGAGGAGGCAGGCUUUGGUGGCGCGAUAGCGCCAACGUCCUCAACCUCCAAUGCAUCCCACUACAUGAUGAUGCCUGAAGAGCCUUGGUUUUUUG [C56U C102U]	-2.28
GACCAAUCUGCCCUCAGAGCUCGAGAACAUCUUCGGAUGCAGAGGAAGCAGGCUUGGGUGGCGCGAUAGCGCCAACGUCCUCAACCUCCAAUGCAUCCCACCACAUGAUGAUGCCUGAAGAGCCUUGGUUUUUUG [G47A C56G]	-1.29
GACCAAUCUGCCCUCAGAUCUCGAGAACAUCUUCGGAUGCAGAGGAGGCAGGCUGCGGUGGCGCGAUAGUGCCAACGUCCUCAACCUCCAAUGCAUCCCACCACAUGAUGAUGCCUGAAGAGCCUUGGUUUUUUG [G19U U55G C70U]	-3.42
GACCAAUCUGCCCUCCGAGCUCGAGAACAUCUUCGGAUGCAUAGGAGGCAGGCUUCCGUGGCGCGAUAGCGCCAACGUCCUCAACCUCCAAUGCAUCCCACCACAUGAUGAUGCCUGUAGAGCCUUGGUUUUUUG [A16C G42U G57C A118U]	-2.43
GACCAAUCUGCCCUCAGAGCUCGAGAACAUCUUCGGAUGCAGAGGAGGCAGGCUCCGGUGGCGCGAUAGCGGCAACGUCCUCGACCUCCAAUGCAUCCCACCACAUGAUGAUGCCUGAAGAGCCUAGGUUUUUUG [U55C C72G A83G U126A]	-2.13
GACCAAUUUGCCCUCAGAGCUCGAGAACAUCUUCGGAUGCAGAGGAGGCAGGCUUCGGUGGCGCGAUAGCGCCAACGUCCUCAACCUCCAAUGCACCCCACCACAUGAUGAUGCCUGAAGAGCCUUGGUUUUUUG [C8U U96C]	0.939
GACCAAUCUGCCCUCAGAGCUCGAGAACAUCUUCGGAUGCAGAGGAGGCAGGGUUCGGUGGCGCGAUAGCGCCAACGUCGUCAACCUCCAAUGCAUCCCACCACAUGAUGAUGCCUGAAGAGCCUUGGUUUUUUG [C53G C80G]	-3.16
GACCAAUCUGCCCUCAGAGCUCGAGAACAUCUUCGGAUGCAGAGGAGGCAGGCUUCGGUGGCGCGAUAGCGCCAACGUCUUCAACCUGCAAUGCAUCCCACCACAUGAUGAUGCCUGAAGAGCCUUGGUUUUUUG [C80U C88G]	-1.25
GACCAAUCUGCCGUCAGAGCUCGAGAACAUCUUCGGAUGCAGAGGAGGCAGGCUUCGAUGGCGCGAUAGUGCCAACGUCCUCAACCUCCAAUGCAUCCCACCACCUGAUGAUGCCUGAAGAGCAUUAGUUUUUUG [C13G G58A C70U A105C C124A G127A]	-4.77

— the RNAGym collection of RNA variant scans (doi:10.1073/pnas.2313332121)
